For experiment [1], the target named is HRgpA-6H (Porphyromonas gingivalis) (UniProt P28784). The experiment is described as follows: ELISA, FASEBA screening, coated HRgpA-6H 0.0625 ug/ml. (In general: An ELISA detects its analyte on a solid surface through an enzyme-linked reagent.)
Experiment [2] has the same target. The experiment is described as follows: ELISA, FASEBA screening, coated HRgpA-6H; variant OD over parental WT Fab OD.

Substitutions are numbered along the chain they refer to. Names and notes keep the numbering of the source. Values joined by “and” are separate entries in the source; they are usually repeats but may differ in a detail not shown here. Equal entries are not always repeated.

UniProt P28784, sequence (P28784 228-860): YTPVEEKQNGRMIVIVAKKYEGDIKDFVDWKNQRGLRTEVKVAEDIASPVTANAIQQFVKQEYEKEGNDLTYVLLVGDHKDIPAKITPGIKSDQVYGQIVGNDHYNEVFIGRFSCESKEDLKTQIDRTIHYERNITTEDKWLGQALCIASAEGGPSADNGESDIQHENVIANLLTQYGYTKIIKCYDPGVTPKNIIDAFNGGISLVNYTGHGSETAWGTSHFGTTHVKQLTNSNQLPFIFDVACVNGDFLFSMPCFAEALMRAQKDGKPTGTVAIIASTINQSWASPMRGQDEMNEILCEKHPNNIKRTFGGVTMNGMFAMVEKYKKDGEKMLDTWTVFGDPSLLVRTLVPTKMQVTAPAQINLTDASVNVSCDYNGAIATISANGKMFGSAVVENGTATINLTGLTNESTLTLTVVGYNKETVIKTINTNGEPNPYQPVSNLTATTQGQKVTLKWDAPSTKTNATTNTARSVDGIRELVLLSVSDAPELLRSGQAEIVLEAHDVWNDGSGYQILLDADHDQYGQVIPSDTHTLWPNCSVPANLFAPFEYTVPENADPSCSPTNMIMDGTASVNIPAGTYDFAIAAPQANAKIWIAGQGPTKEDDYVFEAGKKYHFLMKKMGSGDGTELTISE

B1: KB001 parental mouse Fab FASEBA variant VH G99Y (Fab, V domains shown)
VH: EVQLKQSGPGLVAPSQSLSITCTVSGFSLSIYSVHWVRQPPGKGLEWLGMIWGGGSSDYNSALKSRLSISKDNSKSQVFLKMNSLQTDDTAMYYCARNYNFYAMDYWGQGTSVTVSS
VL: QIVLTQSPAIMSASLGERVTMTCTASSSVSSSFLHWYQQKPGSSPQLWIYSTSNLASGVPARFSGSGSGTSYSLTISSMEAEDAATYYCHQYHHSPYIYTFGGGTKLEIK
In the case of B1, the OD450 nm in experiment [1] was 0.769. In experiment [2], the Ratio OD(Variant)/OD(WT) worked out at 0.965.

B2: KB001 parental mouse Fab FASEBA variant VH N100Q (Fab, V domains shown)
VH: B1 VH with Y99G, N100Q
VL: B1 VL
For B2, the OD450 nm in experiment [1] amounted to 0.846. Besides, the Ratio OD(Variant)/OD(WT) in experiment [2] is 0.999.

B3: KB001 parental mouse Fab FASEBA variant VH N100C (Fab, V domains shown)
VH: B1 VH with Y99G, N100C
VL: B1 VL
B3 yielded an OD450 nm in experiment [1] of 0.688. For the same molecule, the Ratio OD(Variant)/OD(WT) in experiment [2] stood at 0.812.

B4: KB001 parental mouse Fab FASEBA variant VH N100L (Fab, V domains shown)
VH: B1 VH with Y99G, N100L
VL: B1 VL
As to B4, in experiment [1], the OD450 nm was 0.817 and 0.736 and 0.789. The Ratio OD(Variant)/OD(WT) in experiment [2] was 0.965 and 0.869 and 0.932.

B5: KB001 parental mouse Fab FASEBA variant VH A103I (Fab, V domains shown)
VH: B1 VH with Y99G, A103I
VL: B1 VL
Turning to B5, the OD450 nm in experiment [1] was 0.695 and 0.693. The Ratio OD(Variant)/OD(WT) in experiment [2] is 0.806 and 0.804.

B6: KB001 parental mouse Fab FASEBA variant VH A103L (Fab, V domains shown)
VH: B1 VH with Y99G, A103L
VL: B1 VL
Turning to B6, in experiment [1], the OD450 nm came out at 0.783. Besides, in experiment [2], the Ratio OD(Variant)/OD(WT) turned out to be 0.908.

B7: KB001 parental mouse Fab FASEBA variant VH A103K (Fab, V domains shown)
VH: B1 VH with Y99G, A103K
VL: B1 VL
With B7, the OD450 nm in experiment [1] stood at 0.723. In addition, in experiment [2], the Ratio OD(Variant)/OD(WT) came out at 0.839.

B8: KB001 parental mouse Fab FASEBA variant VH F101L (Fab, V domains shown)
VH: B1 VH with Y99G, F101L
VL: B1 VL
Consider B8, for which the OD450 nm in experiment [1] was found to be 0.681. In addition, in experiment [2], the Ratio OD(Variant)/OD(WT) is 0.804.

B9: KB001 parental mouse Fab FASEBA variant VH N100A (Fab, V domains shown)
VH: B1 VH with Y99G, N100A
VL: B1 VL
Turning to B9, the OD450 nm in experiment [1] amounted to 0.809. The Ratio OD(Variant)/OD(WT) in experiment [2] came to 0.955.

B10: KB001 parental mouse Fab FASEBA variant VH N100K (Fab, V domains shown)
VH: B1 VH with Y99G, N100K
VL: B1 VL
In the case of B10, the OD450 nm in experiment [1] was 0.801 and 0.791. For the same molecule, the Ratio OD(Variant)/OD(WT) in experiment [2] is 0.946 and 0.934.

B11: KB001 parental mouse Fab FASEBA variant VH N100T (Fab, V domains shown)
VH: B1 VH with Y99G, N100T
VL: B1 VL
Turning to B11, the OD450 nm in experiment [1] is 0.756 and 0.783. In addition, in experiment [2], the Ratio OD(Variant)/OD(WT) was 0.893 and 0.924.

B12: KB001 parental mouse Fab FASEBA variant VH N100G (Fab, V domains shown)
VH: B1 VH with Y99G, N100G
VL: B1 VL
For the molecule B12, the OD450 nm in experiment [1] was 0.769 and 0.814. Also, the Ratio OD(Variant)/OD(WT) in experiment [2] was 0.908 and 0.961.

B13: KB001 parental mouse Fab FASEBA variant VH F101W (Fab, V domains shown)
VH: B1 VH with Y99G, F101W
VL: B1 VL
As to B13, the OD450 nm in experiment [1] was 0.825 and 0.828 and 0.802. In addition, the Ratio OD(Variant)/OD(WT) in experiment [2] is 0.974 and 0.978 and 0.947.

B14: KB001 parental mouse Fab FASEBA variant VH N100S (Fab, V domains shown)
VH: B1 VH with Y99G, N100S
VL: B1 VL
As for B14, the OD450 nm in experiment [1] was 0.799 and 0.844 and 0.805. The Ratio OD(Variant)/OD(WT) in experiment [2] was 0.943 and 0.996 and 0.95.

B15: KB001 parental mouse Fab FASEBA variant VH A103G (Fab, V domains shown)
VH: B1 VH with Y99G, A103G
VL: B1 VL
For B15, the OD450 nm in experiment [1] is 0.815 and 0.804 and 0.755. In addition, in experiment [2], the Ratio OD(Variant)/OD(WT) is 0.945 and 0.933 and 0.876.

B16: KB001 parental mouse Fab FASEBA variant VH N100I (Fab, V domains shown)
VH: B1 VH with Y99G, N100I
VL: B1 VL
In the case of B16, the OD450 nm in experiment [1] was 0.796 and 0.833. In experiment [2], the Ratio OD(Variant)/OD(WT) was 0.94 and 0.983.

B17: KB001 parental mouse Fab FASEBA variant VH F101M (Fab, V domains shown)
VH: B1 VH with Y99G, F101M
VL: B1 VL
For the molecule B17, the OD450 nm in experiment [1] came to 0.755. Besides, in experiment [2], the Ratio OD(Variant)/OD(WT) was found to be 0.891.

B18: KB001 parental mouse Fab FASEBA variant VH A103V (Fab, V domains shown)
VH: B1 VH with Y99G, A103V
VL: B1 VL
With B18, in experiment [1], the OD450 nm was 0.849 and 0.807. For the same molecule, the Ratio OD(Variant)/OD(WT) in experiment [2] was 0.985 and 0.936.

B19: KB001 parental mouse Fab FASEBA variant VH N100E (Fab, V domains shown)
VH: B1 VH with Y99G, N100E
VL: B1 VL
In experiment [1], B19 yielded an OD450 nm of 0.823. Besides, in experiment [2], the Ratio OD(Variant)/OD(WT) worked out at 0.972.

B20: KB001 parental mouse Fab FASEBA variant VH F101S (Fab, V domains shown)
VH: B1 VH with Y99G, F101S
VL: B1 VL
As to B20, the OD450 nm in experiment [1] is 0.678 and 0.725. Besides, the Ratio OD(Variant)/OD(WT) in experiment [2] was 0.8 and 0.856.

B21: KB001 parental mouse Fab FASEBA variant VH N100P (Fab, V domains shown)
VH: B1 VH with Y99G, N100P
VL: B1 VL
In turn, B21 gave an OD450 nm in experiment [1] of 0.757. Moreover, the Ratio OD(Variant)/OD(WT) in experiment [2] is 0.894.

B22: KB001 parental mouse Fab FASEBA variant VH N100R (Fab, V domains shown)
VH: B1 VH with Y99G, N100R
VL: B1 VL
B22 came in with an OD450 nm in experiment [1] of 0.788. In experiment [2], the Ratio OD(Variant)/OD(WT) was determined as 0.93.

B23: KB001 parental mouse Fab FASEBA variant VH N100F (Fab, V domains shown)
VH: B1 VH with Y99G, N100F
VL: B1 VL
In experiment [1], B23 gave an OD450 nm of 0.779. In addition, the Ratio OD(Variant)/OD(WT) in experiment [2] is 0.92.

B24: KB001 parental mouse Fab FASEBA variant VH G99C (Fab, V domains shown)
VH: B1 VH with Y99C
VL: B1 VL
B24 registered an OD450 nm in experiment [1] of 0.776. Also, the Ratio OD(Variant)/OD(WT) in experiment [2] amounted to 0.974.

B25: KB001 parental mouse Fab FASEBA variant VH A103M (Fab, V domains shown)
VH: B1 VH with Y99G, A103M
VL: B1 VL
In experiment [1], B25 yielded an OD450 nm of 0.811. In addition, the Ratio OD(Variant)/OD(WT) in experiment [2] is 0.941.

B26: KB001 parental mouse Fab FASEBA variant VH N100Y (Fab, V domains shown)
VH: B1 VH with Y99G, N100Y
VL: B1 VL
In the case of B26, the OD450 nm in experiment [1] is 0.757 and 0.784 and 0.699. The Ratio OD(Variant)/OD(WT) in experiment [2] is 0.894 and 0.926 and 0.825.

For the origin of these results see patent US20240400654A1.
